Results on 1 variant are retold here after FireProtDB (doi:10.1021/bi972394l).

To fix the notation:
B1: Superoxide dismutase [Mn], mitochondrial, P04179 (parent)
chain: MLSRAVCGTSRQLAPVLGYLGSRQKHSLPDLPYDYGALEPHINAQIMQLHHSKHHAAYVNNLNVTEEKYQEALAKGDVTAQIALQPALKFNGGGHINHSIFWTNLSPNGGGEPKGELLEAIKRDFGSFDKFKEKLTAASVGVQGSGWGWLGFNKERGHLQIAACPNQDPLQGTTGLIPLLGIDVWEHAYYLQYKNVRPDYLKAIWNVINWENVTERYMACKK

Several values for one entry are separate records, joined by “and”; a condition that tells them apart may be missing. Equal entries are not always repeated.

The first data set covers variants of B1. The conditions noted are these: Homo sapiens; pH 7.8; 88.9 °C; Thermal; DSC; potassium phosphate 2 mM; transition: 2; reversible: Yes; structure 1N0J; whole UniProt chain shown.
MLSRAVCGTSRQLAPVLGYLGSRQKHSLPDLPYDYGALEPHINAQIMQLHHSKHHAAFVNNLNVTEEKYQEALAKGDVTAQIALQPALKFNGGGHINHSIFWTNLSPNGGGEPKGELLEAIKRDFGSFDKFKEKLTAASVGVQGSGWGWLGFNKERGHLQIAACPNQDPLQGTTGLIPLLGIDVWEHAYYLQYKNVRPDYLKAIWNVINWENVTERYMACKK [Y58F]: the “ddG of mutation (higher = less stable)” value is -3.1 kcal/mol.

The data set is the same for the next values; noted with them: Homo sapiens; pH 7.8; Thermal; DSC; potassium phosphate 2 mM; transition: 2; reversible: Yes; structure 1N0J; whole UniProt chain shown.
On to MLSRAVCGTSRQLAPVLGYLGSRQKHSLPDLPYDYGALEPHINAQIMQLHHSKHHAAFVNNLNVTEEKYQEALAKGDVTAQIALQPALKFNGGGHINHSIFWTNLSPNGGGEPKGELLEAIKRDFGSFDKFKEKLTAASVGVQGSGWGWLGFNKERGHLQIAACPNQDPLQGTTGLIPLLGIDVWEHAYYLQYKNVRPDYLKAIWNVINWENVTERYMACKK [Y58F], for which the “unfolding enthalpy (calorimetric)” value is 351 kcal/mol and 197 kcal/mol.
